Data reported in PMC10799895 (Nature Communications, 2024).

Target: T1, His-sumo-ATG14 (UniProt Q6ZNE5 1-492)
T1 construct: not shown: 6×His, N-terminal, kept; SUMO, N-terminal, kept
Test: pull-down; GST pull-down in vitro: GST-tagged protein on GST beads with the His-tagged protein overnight at 4 °C in 20 mM Tris pH 7.4, 300 mM NaCl, 0.1% NP-40, 1 mM PMSF; three washes; western blot
Details: both partners purified

T1 sequence (Q6ZNE5 whole entry): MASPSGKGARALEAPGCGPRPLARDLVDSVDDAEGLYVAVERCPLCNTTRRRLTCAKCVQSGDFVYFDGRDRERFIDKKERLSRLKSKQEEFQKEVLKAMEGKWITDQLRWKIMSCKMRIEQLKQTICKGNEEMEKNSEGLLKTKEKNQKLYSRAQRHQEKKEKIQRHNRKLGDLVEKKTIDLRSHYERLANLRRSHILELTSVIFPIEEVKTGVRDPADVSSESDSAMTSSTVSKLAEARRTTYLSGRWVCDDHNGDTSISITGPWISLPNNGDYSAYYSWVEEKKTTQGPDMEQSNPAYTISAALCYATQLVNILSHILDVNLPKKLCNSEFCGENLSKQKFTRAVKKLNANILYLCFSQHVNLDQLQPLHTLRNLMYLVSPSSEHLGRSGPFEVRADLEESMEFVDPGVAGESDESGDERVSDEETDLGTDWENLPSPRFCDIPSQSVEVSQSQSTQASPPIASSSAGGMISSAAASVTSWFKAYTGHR

B1: GST-GABARAP (natural protein, UniProt O95166 1-117, looked up)
chain: MKFVYKEEHPFEKRRSEGEKIRKKYPDRVPVIVEKAPKARIGDLDKKKYLVPSDLTVGQFYFLIRKRIHLRAEDALFFFVNNVIPPTSATMGQLYQEHHEEDFFLYIAYSDESVYGL
notes: also called GST-ATG8s; not shown: GST, N-terminal, kept
  binding result: binds
